# B1: NHERF1 PDZ1 (11–120) [human] / rhodamine-labeled 22-residue carboxy-terminal NPT2A peptide [modified: 5-(and 6)-carboxytetramethylrhodamine (rhodamine label), coupled to the peptidyl resin after synthesis; 5-(and … (parent)
# chain 1: LPRLCCLEKGPNGYGFHLHGEKGKLGQYIRLVEPGSPAEKAGLLAGDRLVEVNGENVEKETHQQVVSRIRAALNAVRLLVVDPETDEQLQKLGVQVREELLRAQEAPGQA
# chain 2: ELPPATPSPRLALPAHHNATRL
# Variants of: B1
# Assay: fluorescence polarisation
# Conditions: with rhodamine-labeled 22-residue carboxy-terminal NPT2A peptide [modified: 5-(and 6)-carboxytetramethylrhodamine (rhodamine label), labeled NPT2A peptide 1 µM, read at the highest PDZ1 concentration, est. ~120 µM, parent: 0.11, read off a plot
row,Variant,response
1,chain 1 H17N,0.1
2,chain 1 E33D,0.096
